US20210380699A1 (published 2021)
Numbering of substitutions follows the chain as printed.

B1: 413G05 (antibody, human IgG1, kappa, V domains shown)
VH: QVQLVESGGGLVKPGGSLRLSCAASGFTFSDYYMSWIRQVPGKGLEWVSYISTSGSTIYYADSVKGRFTISRDNAKNSLYLQMNSLRAEDAAVYHCARGITGTNFYHYGLGVWGQGTTVTVSS
VL: DIQMTQSPSSVSASVGDRVTITCRASQGINSWLAWYQQKPGKAPKLLIYAASTLQSGVPSRFSGSGSGADFTLTISSLQPEDFATYYCQQVNSFPLTFGGGTKVEIKR
B2: 414B06 (antibody, V domains shown)
VH: EVHLVESGGGLVQPGGSLRLSCAASGFTFSSYWMNWVRQAPGKGLEWVANIKQDGSEKYYVDSVKGRFTVSRDNAKNSLYLQMNSLRAEDTAVYYCARVRQWSDYSDYWGQGTPVTVSS
VL: B1 VL with N30S, T53S, A69T, V91A, L96F, G100P, E105D
notes: also called 414606
B3: 1D05 (control antibody of Examples 14 and 15, constant region not stated) (antibody, V domains shown)
VH: EVQLVESGGGLVQPGRSLRLSCAASGFTFDDYAMHWVRQVPGKGLEWVSGISWIRTGIGYADSVKGRFTIFRDNAKNSLYLQMNSLRAEDTALYYCAKDMKGSGTYGGWFDTWGQGTLVTVSS
VL: not shown
notes: Unfused 1D05 run beside the immunocytokines; also called wild type antibody

Legend:
[1] = molecular target: T1, Human PD-L1 expressed on cells (human, UniProt Q9NZQ7 19-290); test: cell-based or functional assay
[2] = molecular target: T1, Human PD-L1 expressed on cells; test: cell-based or functional assay; remark: listed apart in the source
[3] = molecular target: T1, Human PD-L1 expressed on cells; test: flow cytometry on CHO hPD-L1 cells, competitor biotin-PD-1-Fc, n = 2
Description: (§1) 150 μL FACS buffer is added and cells washed as described above. […] Cells are incubated at 4° C. for 60 minutes. Cells are washed twice with 150 μL FACS buffer, centrifuging at 300 g for 3 minutes after each wash step and aspirating supernatant. Cells are fixed, washed and resuspended for analysis as above. APC signal intensity (geometric mean) is measured by flow cytometry using a Beckman Coulter CYTOFLEX instrument. Data is plotted as percentage of receptor binding.

[4] = molecular target: T2, Mouse PD-L1 ECD His (mouse, UniProt Q9EP73 19-239); test: SPR 25C and 37C
T2 construct: also called mouse PD-L1 (his-tagged)

[5] = molecular target: T1, Human PD-L1 expressed on cells; test: flow cytometry on CHO hPD-L1 cells, competitor biotin-PD-1-Fc, n = 1
Description: as §1

[6] = molecular target: T3, Human PD-L1 His (human PD-L1 ECD with C-terminal His tag) (human, UniProt Q9NZQ7 19-238); test: ELISA, biotin-PD-L1 to plate-bound PD-1, antibody titrated
T3 construct: Biotinylated in ELISA and AlphaScreen assays; also called hPD-L1-his; biotinylated PD-L1 his
Description: (§2) Excess protein was removed by washing with PBS-Tween (0.1% v/v) and the wells were blocked with 1% w/v bovine serum albumin (BSA, Sigma) in PBS for 1 hour at room temperature, after which plates were washed with PBS-Tween as above. 60 μL of a titration (three-fold serial dilution) of antibody was added to a 96-well, non-binding plate diluted in ELISA assay buffer (PBS +0.1% BSA). […] The plate was incubated for 30 minutes before transferring 50 μL to the coated plates. The coated plates were incubated for 1 hour at room temperature. Excess protein was removed by washing with PBS-Tween (0.1% v/v). PD-L1 binding was detected using streptavidin labelled europium (Perkin Elmer) diluted 1/1000 in DELFIA assay buffer (Perkin Elmer). The plates were washed with TBS (Tris buffered saline)-Tween (0.1% v/v) and 50 μL/well of DELFIA Enhancement solution (Perkin Elmer) was added to the plate. Time-resolved fluorescence was measured at 615 nm on an Envision plate reader (PerkinElmer). Percentage specific binding was calculated as defined in Equation 3. IC50 values were determined using GraphPad Prism software by curve fitting using a four-parameter logistic equation (Equation 4). Values for KM121 antibodies are a mean of three independent experiments. Values for KM122 are from a single experiment.

[7] = molecular target: T3, Human PD-L1 His (human PD-L1 ECD with …); test: ELISA, biotin-PD-L1 to plate-bound CD80, antibody titrated
Description: as §2

[8] = molecular target: T1, Human PD-L1 expressed on cells; test: flow cytometry on CHO hPD-L1 cells, competitor biotin-CD80-Fc, n = 2
Description: as §1
(§3) All other steps are performed as per plate 2.

[9] = molecular target: T3, Human PD-L1 His (human PD-L1 ECD with …); test: SPR 25C, antibody captured, PD-L1 analyte
Description: (§4) Label-free surface plasmon resonance (SPR) analysis was carried out on the ProteOn XPR36 (BioRad) array SPR machine. An anti-human IgG capture surface was created on a GLC biosensor chip using a combination of anti-human Fc antibodies (Jackson Labs 09-005-008,109-006-008 and 309-006-008) by amine coupling. […] The data was analysed using the 1:1 model inherent to the ProteOn XPR36 analysis software.

[10] = molecular target: T4, Cyno PD-L1 FLAG (cynomolgus PD-L1 ECD with FLAG tag) (cynomolgus monkey); test: SPR 25C, antibody captured, PD-L1 analyte
T4 construct: also called cynomolgus monkey PD-L1-FLAG
Description: as §4

[11] = molecular target: T1, Human PD-L1 expressed on cells; test: cell-based or functional assay; remark: listed apart in the source
[12] = molecular target: T3, Human PD-L1 His (human PD-L1 ECD with …); test: SPR 37C, antibody captured, PD-L1 analyte
[13] = molecular target: T4, Cyno PD-L1 FLAG (cynomolgus PD-L1 ECD …); test: SPR 37C, antibody captured, PD-L1 analyte
[14] = molecular target: T1, Human PD-L1 expressed on cells; test: flow cytometry on CHO hPD-L1 cells, competitor biotin-CD80-Fc, n = 1
Description: as §1, §3

[15] = molecular target: T3, Human PD-L1 His (human PD-L1 ECD with …); test: ELISA, biotin-PD-L1 to plate-bound CD80, antibody titrated; remark: listed apart in the source
Description: (§5) Excess protein was removed by washing with PBS-Tween (0.1% v/v) and the wells were blocked with 1% w/v bovine serum albumin (BSA, Sigma) in PBS for 1 hour at room temperature, after which plates were washed as described previously. 60 μL of a titration (three-fold dilutions from 100 nM) of antibody was added to a 96-well, non-binding plate diluted in ELISA assay buffer (PBS+0.1% BSA). […] The plate was incubated for 30 min before transferring 50 μL to the coated plates.
(§6) The coated plates were incubated for 1 hour at room temperature. Excess protein was removed by washing with PBS-Tween (0.1% v/v). PD-L1 binding was detected using streptavidin labelled Europium (Perkin Elmer) diluted 1/1000 in DELFIA assay buffer (Perkin Elmer). The plates were washed with TBS (Tris buffered saline)-Tween (0.1% v/v) and 50 μL/well of DELFIA Enhancement solution (Perkin Elmer) was added to the plate. The time-resolved fluorescence was measured at 615 nm on an Envision plate reader (PerkinElmer). Percentage specific binding was calculated as defined in Equation 3.

[16] = molecular target: T3, Human PD-L1 His (human PD-L1 ECD with …); test: SPR 25C, antibody captured, PD-L1 analyte; remark: listed apart in the source
Description: Label-free surface plasmon resonance (SPR) analysis was carried out on the ProteOn XPR36 (BioRad) array SPR machine. An anti-human IgG capture surface was created on a GLC biosensor chip using amine coupling of an anti-human IgG from GE Healthcare. […] The assay was carried out at 25° C. using HBS-EP (Teknova H8022). Buffer alone was used to reference the binding sensorgrams. The data was analysed using the 1:1 model inherent to the ProteOn XPR36 analysis software.

[17] = molecular target: T3, Human PD-L1 His (human PD-L1 ECD with …); test: ELISA, biotin-PD-L1 to plate-bound PD-1, antibody titrated; remark: listed apart in the source
Description: as §5, §6

T1 sequence (Q9NZQ7 19-290 limits assumed): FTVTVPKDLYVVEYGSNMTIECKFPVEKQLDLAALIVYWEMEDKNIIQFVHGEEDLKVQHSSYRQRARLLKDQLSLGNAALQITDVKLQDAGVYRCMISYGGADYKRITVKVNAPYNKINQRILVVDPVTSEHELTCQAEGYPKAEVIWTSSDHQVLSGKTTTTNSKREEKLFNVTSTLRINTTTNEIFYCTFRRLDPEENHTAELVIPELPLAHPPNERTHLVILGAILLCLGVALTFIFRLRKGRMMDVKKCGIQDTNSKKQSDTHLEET
T3 sequence (Q9NZQ7 19-238 limits assumed): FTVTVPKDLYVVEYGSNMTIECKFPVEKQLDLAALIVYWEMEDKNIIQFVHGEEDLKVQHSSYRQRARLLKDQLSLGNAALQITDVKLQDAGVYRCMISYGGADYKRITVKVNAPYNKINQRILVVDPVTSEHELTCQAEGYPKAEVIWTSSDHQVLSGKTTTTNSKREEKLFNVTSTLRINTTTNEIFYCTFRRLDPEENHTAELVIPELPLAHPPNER
T4 sequence (chain, as listed by the source limits assumed): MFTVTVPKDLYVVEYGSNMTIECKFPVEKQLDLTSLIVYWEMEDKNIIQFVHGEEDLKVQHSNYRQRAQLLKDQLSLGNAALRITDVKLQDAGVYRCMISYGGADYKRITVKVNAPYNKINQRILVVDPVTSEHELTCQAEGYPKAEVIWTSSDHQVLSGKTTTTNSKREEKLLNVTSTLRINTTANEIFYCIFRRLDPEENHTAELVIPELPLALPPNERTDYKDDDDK
T2 sequence (Q9EP73 other isoform, or with tags, fused parts or gaps): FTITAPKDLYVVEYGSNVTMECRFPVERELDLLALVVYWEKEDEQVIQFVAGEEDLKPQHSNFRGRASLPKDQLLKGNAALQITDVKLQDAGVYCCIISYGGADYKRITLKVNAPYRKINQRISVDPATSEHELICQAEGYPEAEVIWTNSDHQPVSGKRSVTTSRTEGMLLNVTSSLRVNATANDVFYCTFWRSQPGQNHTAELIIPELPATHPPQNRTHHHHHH

Row | Binder | mean EC50, IFNγ induction, monocyte-T cell co-culture [1] | mean fold increase IFNγ, monocyte-T cell co-culture [1] | EC50, ADCC reporter assay, n = 1 [2] | EC50, ADCC reporter assay, n = 2 [2] | EC50, ADCC reporter assay, n = 3 [2] | max fold induction, ADCC reporter assay, n = 1 [2] | max fold induction, ADCC reporter assay, n = 2 [2] | max fold induction, ADCC reporter assay, n = 3 [2] | IC50 [3] | binding result [4] | IC50 [5] | IC50 [6] | IC50 [7] | IC50 [8] | Kd [9] | Kd [10] | EC50, IL-2 induction, murine T cell hybridoma assay, n = 1 [11] | EC50, IL-2 induction, murine T cell hybridoma assay, n = 2 [11] | EC50, IL-2 induction, murine T cell hybridoma assay, n = 3 [11] | Kd [12] | other results
1 | B1 | 0.082 nM | 2.85 fold | 0.0219 nM | 0.0209 nM | 0.0275 nM | 13.2 fold | 16.4 fold | 23.4 fold | 1.17 nM | no binding | 1.07 nM | 2.02 nM | 1.1 nM | 1.17 nM | 0.024 nM | 0.015 nM | 0.29 nM | 0.11 nM | 0.29 nM | 0.05 nM | Kd [13]: 0.046 nM; IC50 [14]: 1.09 nM
2 | B2 | 0.012 nM | 3.33 fold | 0.0191 nM | 0.015 nM | 0.0242 nM | 10.9 fold | 20.1 fold | 31.5 fold | 1.22 nM | no binding | 0.95 nM | 1.84 nM | 1 nM | 1.22 nM | 0.172 nM | 0.192 nM | 0.59 nM | 0.3 nM | 0.18 nM | 0.778 nM | Kd [13]: 0.794 nM; IC50 [14]: 1.26 nM
3 | B3 | – | – | – | – | – | – | – | – | – | – | – | – | – | – | – | – | – | – | – | – | IC50 [15]: 0.882 nM; Kd [16]: 0.171 nM; IC50 [17]: 1.41 nM
